According to publication PMC12368724, “Impact of Changes in Buffer Ionic Concentration and Mutations on a GH1 β‑Glucosidase Homodimer” (ACS Omega, 2025):
Blank lines part the entries; values can stand above or below the binder they belong to.

How the values were obtained:
[1] = target: T1, GH1 β-glucosidase from Spodoptera frugiperda (Sfβgly), wild-type (Spodoptera frugiperda); test: SEC; dimer to monomers; 100 mM phosphate buffer pH 6 (P100), 5 °C; two Superdex 200 HR10/300 GL columns in tandem; KD is the slope of [M]^2 versus [D] from peak areas at several protein concentrations; details: both partners purified
[2] = target: T1, GH1 β-glucosidase from Spodoptera …; test: SEC-MALS; 90 μM Sfβgly in 100 mM sodium phosphate buffer pH 6 (P100) at 5 °C; two Superdex 200 columns in tandem; details: both partners purified
[3] = target: T1, GH1 β-glucosidase from Spodoptera …; test: SEC; dimer to monomers; 5 mM phosphate buffer pH 6 (P5), 5 °C; KD is the slope of [M]^2 versus [D] from peak areas; details: both partners purified
[4] = target: T1, GH1 β-glucosidase from Spodoptera …; test: SEC; dimer to monomers; 50 mM phosphate buffer pH 6 (P50), 5 °C; KD is the slope of [M]^2 versus [D] from peak areas; details: both partners purified
[5] = target: T1, GH1 β-glucosidase from Spodoptera …; test: SEC; dimer to monomers; 25 mM phosphate buffer pH 6 (P25), 5 °C; KD is the slope of [M]^2 versus [D] from peak areas; details: both partners purified
[6] = target: T1, GH1 β-glucosidase from Spodoptera …; test: SEC; dimer to monomers; 75 mM phosphate buffer pH 6 (P75), 5 °C; KD is the slope of [M]^2 versus [D] from peak areas; details: both partners purified
[7] = target: T1, GH1 β-glucosidase from Spodoptera …; test: SEC; dimer to monomers; 100 mM phosphate buffer pH 6 (P100), 5 °C; two Superdex 200 HR10/300 GL columns in tandem; KD is the slope of [M]^2 versus [D] from peak areas at several protein concentrations; details: both partners purified; remark: listed apart in the source
[8] = target: the molecule itself; test: as above

Kd [1]: 7 µM | stoichiometry N [2]: 2 | Kd [3]: 135 µM | Kd [4]: 9.5 µM | Kd [5]: 78 µM | Kd [6]: 9.9 µM | Kd [7]: 8 µM
B1: GH1 β-glucosidase from Spodoptera frugiperda (Sfβgly), wild-type (enzyme)
chain: QQRRFPDDFLFGTATASYQIEGAWDEDGKGENIWDYMVHNTPEVIRDLSNGDIAADSYHNYKRDVEMMRELGLDAYRFSLSWARILPTGMANEVNPAGIAFYNNYIDEMLKYNITPLITLYHWDLPQKLQELGGFANPLISDWFEDYARVVFENFGDRVKMFITFNEPREICFEGYGSATKAPILNATAMGAYLCAKNLVTAHAKAYYLYDREFRPVQGGQCGITISVNWFGPATPTPEDEMAAELRRQGEWGIYAHPIFSAEGGFPKELSDKIAEKSAQQGYPWSRLPEFTEEEKAFVRGTSDFFGVNHYTAFLVSATERKGPYPVPSLLDDVDTGSWADDSWLKSASAWLTLAPNSIHTALTHLNNLYNKPVFYITENGWSTDESRENSLIDDDRIQYYRASMESLLNCLDDGINLKGYMAWSLMDNFEWMEGYIERFGLYEVDFSDPARTRTPRKAAFVYKHIIKHRVVDYEYEPETMVMTIDEGH
modifications: Monomer given, self-associates to a C2 homodimer. Limits by convention from the 5CG0 entity; paper numbering = entity + 20 (precursor numbering) / Monomer given, self-associates to a C2 homodimer. …

B2: Sfβgly mutant N157S (enzyme)
chain: QQRRFPDDFLFGTATASYQIEGAWDEDGKGENIWDYMVHNTPEVIRDLSNGDIAADSYHNYKRDVEMMRELGLDAYRFSLSWARILPTGMANEVNPAGIAFYNNYIDEMLKYNITPLITLYHWDLPQKLQELGGFASPLISDWFEDYARVVFENFGDRVKMFITFNEPREICFEGYGSATKAPILNATAMGAYLCAKNLVTAHAKAYYLYDREFRPVQGGQCGITISVNWFGPATPTPEDEMAAELRRQGEWGIYAHPIFSAEGGFPKELSDKIAEKSAQQGYPWSRLPEFTEEEKAFVRGTSDFFGVNHYTAFLVSATERKGPYPVPSLLDDVDTGSWADDSWLKSASAWLTLAPNSIHTALTHLNNLYNKPVFYITENGWSTDESRENSLIDDDRIQYYRASMESLLNCLDDGINLKGYMAWSLMDNFEWMEGYIERFGLYEVDFSDPARTRTPRKAAFVYKHIIKHRVVDYEYEPETMVMTIDEGH
Kd [8]: 28 µM

B3: Sfβgly mutant D166S (enzyme)
chain: QQRRFPDDFLFGTATASYQIEGAWDEDGKGENIWDYMVHNTPEVIRDLSNGDIAADSYHNYKRDVEMMRELGLDAYRFSLSWARILPTGMANEVNPAGIAFYNNYIDEMLKYNITPLITLYHWDLPQKLQELGGFANPLISDWFESYARVVFENFGDRVKMFITFNEPREICFEGYGSATKAPILNATAMGAYLCAKNLVTAHAKAYYLYDREFRPVQGGQCGITISVNWFGPATPTPEDEMAAELRRQGEWGIYAHPIFSAEGGFPKELSDKIAEKSAQQGYPWSRLPEFTEEEKAFVRGTSDFFGVNHYTAFLVSATERKGPYPVPSLLDDVDTGSWADDSWLKSASAWLTLAPNSIHTALTHLNNLYNKPVFYITENGWSTDESRENSLIDDDRIQYYRASMESLLNCLDDGINLKGYMAWSLMDNFEWMEGYIERFGLYEVDFSDPARTRTPRKAAFVYKHIIKHRVVDYEYEPETMVMTIDEGH
Kd [8]: 100 µM

B4: Sfβgly mutant N112S (enzyme)
chain: QQRRFPDDFLFGTATASYQIEGAWDEDGKGENIWDYMVHNTPEVIRDLSNGDIAADSYHNYKRDVEMMRELGLDAYRFSLSWARILPTGMASEVNPAGIAFYNNYIDEMLKYNITPLITLYHWDLPQKLQELGGFANPLISDWFEDYARVVFENFGDRVKMFITFNEPREICFEGYGSATKAPILNATAMGAYLCAKNLVTAHAKAYYLYDREFRPVQGGQCGITISVNWFGPATPTPEDEMAAELRRQGEWGIYAHPIFSAEGGFPKELSDKIAEKSAQQGYPWSRLPEFTEEEKAFVRGTSDFFGVNHYTAFLVSATERKGPYPVPSLLDDVDTGSWADDSWLKSASAWLTLAPNSIHTALTHLNNLYNKPVFYITENGWSTDESRENSLIDDDRIQYYRASMESLLNCLDDGINLKGYMAWSLMDNFEWMEGYIERFGLYEVDFSDPARTRTPRKAAFVYKHIIKHRVVDYEYEPETMVMTIDEGH
Kd [8]: 1200 µM

B5: Sfβgly mutant M210A (enzyme)
chain: QQRRFPDDFLFGTATASYQIEGAWDEDGKGENIWDYMVHNTPEVIRDLSNGDIAADSYHNYKRDVEMMRELGLDAYRFSLSWARILPTGMANEVNPAGIAFYNNYIDEMLKYNITPLITLYHWDLPQKLQELGGFANPLISDWFEDYARVVFENFGDRVKMFITFNEPREICFEGYGSATKAPILNATAAGAYLCAKNLVTAHAKAYYLYDREFRPVQGGQCGITISVNWFGPATPTPEDEMAAELRRQGEWGIYAHPIFSAEGGFPKELSDKIAEKSAQQGYPWSRLPEFTEEEKAFVRGTSDFFGVNHYTAFLVSATERKGPYPVPSLLDDVDTGSWADDSWLKSASAWLTLAPNSIHTALTHLNNLYNKPVFYITENGWSTDESRENSLIDDDRIQYYRASMESLLNCLDDGINLKGYMAWSLMDNFEWMEGYIERFGLYEVDFSDPARTRTPRKAAFVYKHIIKHRVVDYEYEPETMVMTIDEGH
Kd [8]: 3600 µM

B6: Sfβgly mutant L214A (enzyme)
chain: QQRRFPDDFLFGTATASYQIEGAWDEDGKGENIWDYMVHNTPEVIRDLSNGDIAADSYHNYKRDVEMMRELGLDAYRFSLSWARILPTGMANEVNPAGIAFYNNYIDEMLKYNITPLITLYHWDLPQKLQELGGFANPLISDWFEDYARVVFENFGDRVKMFITFNEPREICFEGYGSATKAPILNATAMGAYACAKNLVTAHAKAYYLYDREFRPVQGGQCGITISVNWFGPATPTPEDEMAAELRRQGEWGIYAHPIFSAEGGFPKELSDKIAEKSAQQGYPWSRLPEFTEEEKAFVRGTSDFFGVNHYTAFLVSATERKGPYPVPSLLDDVDTGSWADDSWLKSASAWLTLAPNSIHTALTHLNNLYNKPVFYITENGWSTDESRENSLIDDDRIQYYRASMESLLNCLDDGINLKGYMAWSLMDNFEWMEGYIERFGLYEVDFSDPARTRTPRKAAFVYKHIIKHRVVDYEYEPETMVMTIDEGH
Kd [8]: 5400 µM
